Patent US20250281611A1 (BIOSCEPTRE AUST, published 2025)

How the values were obtained:
CD33 [1] = biological target: T1, CD33 (UniProt P20138 18-364, limits assumed); experiment: flow cytometry, MOLM-13 cells, anti-His-FITC detection, ratio to no bridge
T1 construct: whole, on cells; also called Siglec-3; CD33 on MOLM-13 cells
Method: (§1) MOLM-13 cells were incubated with different CD33 BRIDGE variants at saturating concentrations. […] The MFI intensity correlates with the number of secondary antibodies bound to the CD33 BRIDGE variants that are only detected if they are bound to the MOLM-13 cells. MFI: median fluorescence intensity. BLItz: Bio-Layer interferometry (BLI) technology using HIS-tag identification tips. […] The higher the MFIR, the stronger the binding.

nfP2X7 CAR 1 [2] = biological target: T2, nfP2X7 CAR 1; experiment: flow cytometry, CAR T cells, anti-His-FITC, EGFR+ over EGFR- cells
T2 construct: Expressed on T cells with truncated EGFR as marker gene; also called anti-nfP2X7 receptor CAR 1; nfP2X7 targeted CAR on EGFR+ T cells
Method: (§2) nfP2X₇ CAR T cells were incubated with different BRiDGE variants at saturating concentrations. […] The MFI intensity correlates with the number of secondary bound antibodies bound to the BRiDGEs that are only detected if they are bound to the CAR T cells. EGFR was used as a marker gene to detect the CAR expression. Thus, the EGFR+ T cell population was defined as the CAR expressing cells and the EGFR− T cell population was defined as the CAR negative subset. MFI: median fluorescence intensity. EGFR: epidermal growth factor receptor. BLItz: Bio-Layer interferometry (BLI) technology using HIS-tag identification tips. HIS-tag MFI Ratio: relative index that is calculated by the testing condition MFI divided by the control MFI, which corresponds to the MFI measured on EGFR+ T cells (defined as CAR positive cells) divided by the MFI measured on the EGFR− T cells (defined as CAR negative cells). […] The higher the MFIR, the stronger the binding.

CD33 [3] = biological target: T1, CD33; experiment: flow cytometry, MOLM-13 cells, anti-His-FITC detection
Method: as §1

nfP2X7 CAR 1 [4] = biological target: T2, nfP2X7 CAR 1; experiment: flow cytometry, CAR T cells, anti-His-FITC, EGFR+ MFI over background 0.4
Method: as §2

nfP2X7 CAR 1 [5] = biological target: T2, nfP2X7 CAR 1; experiment: flow cytometry, nfP2X7 CAR T cells (EGFR+), anti-His-FITC detection
Method: as §2

T1 sequence (P20138 18-364 limits assumed): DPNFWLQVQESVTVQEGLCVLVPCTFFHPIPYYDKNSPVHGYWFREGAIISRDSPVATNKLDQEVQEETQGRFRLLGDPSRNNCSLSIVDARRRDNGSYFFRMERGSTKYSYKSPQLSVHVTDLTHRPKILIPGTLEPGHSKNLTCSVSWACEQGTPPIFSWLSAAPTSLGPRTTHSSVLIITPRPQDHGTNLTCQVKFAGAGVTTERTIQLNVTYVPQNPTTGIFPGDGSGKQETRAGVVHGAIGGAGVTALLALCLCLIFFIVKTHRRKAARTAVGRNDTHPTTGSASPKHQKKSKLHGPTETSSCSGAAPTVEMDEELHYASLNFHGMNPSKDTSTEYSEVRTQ

Binder	MFIR HisTag FITC (CD33 [1])	HisTag MFI Ratio of EGFR+/EGFR- (nfP2X7 CAR 1 [2])	MFI HisTag FITC (CD33 [3])	HisTag MFI Ratio (background 0.4) (nfP2X7 CAR 1 [4])	MFI HisTag FITC in EGFR+ Population (nfP2X7 CAR 1 [5])
CD33 BRIDGE variant B12 (Fab, Lintuzumab-based Fab bridging molecule) light: GHNYTTRNILPGLNITSTFHKTSGSGKGGGGSEPKSSDKTHTGSDIQMTQSPSSLSASVGDRVTITCRASESVDNYGISFMNWFQQKPGKAPKLLIYAASNQGSGVPSRFSGSGSGTDFTLTISSLQPDDFATYYCQQSKEVPWTFGQGTKVEIKRTVAAPSVFIFPPSDEQLKSGTASVVCLLNNFYPREAKVQWKVDNALQSGNSQESVTEQDSKDSTYSLSSTLTLSKADYEKHKVYACEVTHQGLSSPVTKSFNRGECHHHHHH heavy: QVQLVQSGAEVKKPGSSVKVSCKASGYTFTDYNMHWVRQAPGQGLEWIGYIYPYNGGTGYNQKFKSKATITADESTNTAYMELSSLRSEDTAVYYCARGRPAMDYWGQGTLVTVSSASTKGPSVFPLAPSSKSTSGGTAALGCLVKDYFPEPVTVSWNSGALTSGVHTFPAVLQSSGLYSLSSVVTVPSSSLGTQTYICNVNHKPSNTKVDKKVEPKSCHHHHHH	9.07	3.1	6.08	3.9	1.55
CD33 BRIDGE variant B16 (Fab, Lintuzumab-based Fab bridging molecule) light: GHNYTTRNILPGLNITSTFHKTSGSGKEPKSSDKTHTGGGGSDIQMTQSPSSLSASVGDRVTITCRASESVDNYGISFMNWFQQKPGKAPKLLIYAASNQGSGVPSRFSGSGSGTDFTLTISSLQPDDFATYYCQQSKEVPWTFGQGTKVEIKRTVAAPSVFIFPPSDEQLKSGTASVVCLLNNFYPREAKVQWKVDNALQSGNSQESVTEQDSKDSTYSLSSTLTLSKADYEKHKVYACEVTHQGLSSPVTKSFNRGECHHHHHH heavy: QVQLVQSGAEVKKPGSSVKVSCKASGYTFTDYNMHWVRQAPGQGLEWIGYIYPYNGGTGYNQKFKSKATITADESTNTAYMELSSLRSEDTAVYYCARGRPAMDYWGQGTLVTVSSASTKGPSVFPLAPSSKSTSGGTAALGCLVKDYFPEPVTVSWNSGALTSGVHTFPAVLQSSGLYSLSSVVTVPSSSLGTQTYICNVNHKPSNTKVDKKVEPKSCHHHHHH	9.36	3.4	6.27	4.6	1.83
CD33 BRIDGE variant B18 (Fab, Lintuzumab-based Fab bridging molecule) light: GHNYTTRNILPGLNITSTFHKTSGSGKGGGGSEPKSSDKTHTGGGGSDIQMTQSPSSLSASVGDRVTITCRASESVDNYGISFMNWFQQKPGKAPKLLIYAASNQGSGVPSRFSGSGSGTDFTLTISSLQPDDFATYYCQQSKEVPWTFGQGTKVEIKRTVAAPSVFIFPPSDEQLKSGTASVVCLLNNFYPREAKVQWKVDNALQSGNSQESVTEQDSKDSTYSLSSTLTLSKADYEKHKVYACEVTHQGLSSPVTKSFNRGECHHHHHH heavy: QVQLVQSGAEVKKPGSSVKVSCKASGYTFTDYNMHWVRQAPGQGLEWIGYIYPYNGGTGYNQKFKSKATITADESTNTAYMELSSLRSEDTAVYYCARGRPAMDYWGQGTLVTVSSASTKGPSVFPLAPSSKSTSGGTAALGCLVKDYFPEPVTVSWNSGALTSGVHTFPAVLQSSGLYSLSSVVTVPSSSLGTQTYICNVNHKPSNTKVDKKVEPKSCHHHHHH	8.64	3.4	5.79	4.5	1.79
CD33 BRIDGE variant B15 (Fab, Lintuzumab-based Fab bridging molecule) light: GHNYTTRNILPGLNITSGGGGSEPKSSDKTHTGGGGSDIQMTQSPSSLSASVGDRVTITCRASESVDNYGISFMNWFQQKPGKAPKLLIYAASNQGSGVPSRFSGSGSGTDFTLTISSLQPDDFATYYCQQSKEVPWTFGQGTKVEIKRTVAAPSVFIFPPSDEQLKSGTASVVCLLNNFYPREAKVQWKVDNALQSGNSQESVTEQDSKDSTYSLSSTLTLSKADYEKHKVYACEVTHQGLSSPVTKSFNRGECHHHHHH heavy: QVQLVQSGAEVKKPGSSVKVSCKASGYTFTDYNMHWVRQAPGQGLEWIGYIYPYNGGTGYNQKFKSKATITADESTNTAYMELSSLRSEDTAVYYCARGRPAMDYWGQGTLVTVSSASTKGPSVFPLAPSSKSTSGGTAALGCLVKDYFPEPVTVSWNSGALTSGVHTFPAVLQSSGLYSLSSVVTVPSSSLGTQTYICNVNHKPSNTKVDKKVEPKSCHHHHHH	11.4	3.1	7.64	3.8	1.5
CD33 BRIDGE variant B17 (Fab, Lintuzumab-based Fab bridging molecule) light: GHNYTTRNILPGLNITSTFHKTSGSGKGSEPKSSDKTHTGGGGSDIQMTQSPSSLSASVGDRVTITCRASESVDNYGISFMNWFQQKPGKAPKLLIYAASNQGSGVPSRFSGSGSGTDFTLTISSLQPDDFATYYCQQSKEVPWTFGQGTKVEIKRTVAAPSVFIFPPSDEQLKSGTASVVCLLNNFYPREAKVQWKVDNALQSGNSQESVTEQDSKDSTYSLSSTLTLSKADYEKHKVYACEVTHQGLSSPVTKSFNRGECHHHHHH heavy: QVQLVQSGAEVKKPGSSVKVSCKASGYTFTDYNMHWVRQAPGQGLEWIGYIYPYNGGTGYNQKFKSKATITADESTNTAYMELSSLRSEDTAVYYCARGRPAMDYWGQGTLVTVSSASTKGPSVFPLAPSSKSTSGGTAALGCLVKDYFPEPVTVSWNSGALTSGVHTFPAVLQSSGLYSLSSVVTVPSSSLGTQTYICNVNHKPSNTKVDKKVEPKSCHHHHHH	11	3.2	7.36	4	1.58
CD33 BRIDGE variant B9 (Fab, V domains shown, Lintuzumab-based Fab bridging molecule) VH: QVQLVQSGAEVKKPGSSVKVSCKASGYTFTDYNMHWVRQAPGQGLEWIGYIYPYNGGTGYNQKFKSKATITADESTNTAYMELSSLRSEDTAVYYCARGRPAMDYWGQGTLVTVSS VL: DIQMTQSPSSLSASVGDRVTITCRASESVDNYGISFMNWFQQKPGKAPKLLIYAASNQGSGVPSRFSGSGSGTDFTLTISSLQPDDFATYYCQQSKEVPWTFGQGTKVEIKR	9.45	2.8	6.33	2.9	1.16
CD33 BRIDGE variant B19 (Fab, V domains shown, Lintuzumab-based Fab bridging molecule) VH: QVQLVQSGAEVKKPGSSVKVSCKASGYTFTDYNMHWVRQAPGQGLEWIGYIYPYNGGTGYNQKFKSKATITADESTNTAYMELSSLRSEDTAVYYCARGRPAMDYWGQGTLVTVSS VL: DIQMTQSPSSLSASVGDRVTITCRASESVDNYGISFMNWFQQKPGKAPKLLIYAASNQGSGVPSRFSGSGSGTDFTLTISSLQPDDFATYYCQQSKEVPWTFGQGTKVEIKR	7.99	2.9	5.35	3.2	1.29
CD33 BRIDGE variant B14 (Fab, V domains shown, Lintuzumab-based Fab bridging molecule) VH: QVQLVQSGAEVKKPGSSVKVSCKASGYTFTDYNMHWVRQAPGQGLEWIGYIYPYNGGTGYNQKFKSKATITADESTNTAYMELSSLRSEDTAVYYCARGRPAMDYWGQGTLVTVSS VL: DIQMTQSPSSLSASVGDRVTITCRASESVDNYGISFMNWFQQKPGKAPKLLIYAASNQGSGVPSRFSGSGSGTDFTLTISSLQPDDFATYYCQQSKEVPWTFGQGTKVEIKR	9.97	2.9	6.68	3.6	1.44
CD33 BRIDGE variant B13 (Fab, V domains shown, Lintuzumab-based Fab bridging molecule) VH: QVQLVQSGAEVKKPGSSVKVSCKASGYTFTDYNMHWVRQAPGQGLEWIGYIYPYNGGTGYNQKFKSKATITADESTNTAYMELSSLRSEDTAVYYCARGRPAMDYWGQGTLVTVSS VL: DIQMTQSPSSLSASVGDRVTITCRASESVDNYGISFMNWFQQKPGKAPKLLIYAASNQGSGVPSRFSGSGSGTDFTLTISSLQPDDFATYYCQQSKEVPWTFGQGTKVEIKR	10.1	2.9	6.78	3.4	1.35
CD33 BRIDGE variant B20 (Fab, V domains shown, Lintuzumab-based Fab bridging molecule) VH: QVQLVQSGAEVKKPGSSVKVSCKASGYTFTDYNMHWVRQAPGQGLEWIGYIYPYNGGTGYNQKFKSKATITADESTNTAYMELSSLRSEDTAVYYCARGRPAMDYWGQGTLVTVSS VL: DIQMTQSPSSLSASVGDRVTITCRASESVDNYGISFMNWFQQKPGKAPKLLIYAASNQGSGVPSRFSGSGSGTDFTLTISSLQPDDFATYYCQQSKEVPWTFGQGTKVEIKR	8.46	2.9	5.67	3.2	1.29
